B1: Protein S100-G, P02633 (parent)
chain: MSAKKSPEELKGIFEKYAAKEGDPNQLSKEELKLLLQTEFPSLLKGPSTLDELFEELDKNGDGEVSFEEFQVLVKKISQ

Variants of: B1
Details: Bos taurus; pH 7; 25 °C; Urea; CD; Potassium phosphate 10 mM; structure 1IGV; whole UniProt chain shown

| Variant | ddG of mutation (higher = less stable) [kcal/mol] | denaturant m value [kcal/mol/M] | denaturant midpoint (higher = more stable) [M] | unfolding free energy [kcal/mol] |
| --- | --- | --- | --- | --- |
| L32A | 2.7 | 1.03 | 3.8 | 3.85 |
| L27G | 4.28 | 1.22 | 1.8 | 2.27 |
| L27A | 3.73 | 1.03 | 2.7 | 2.82 |
| L10V | 2.2 | 1 | 4.3 | 4.35 |
| V65A | 3.78 | 0.81 | 3.4 | 2.77 |
| V65G | 4.35 | 0.86 | 2.6 | 2.2 |
| F70W | 2.34 | 0.69 | 6.1 | 4.21 |
| F70A | 4.97 | 0.79 | 2 | 1.58 |
| I77V | 1.53 | 1.15 | 4.4 | 5.02 |
| F14A | 4.83 | 0.88 | 2 | 1.72 |
| V74L | 1.2 | 0.81 | 6.6 | 5.35 |

From FireProtDB (doi:10.1021/bi972642d)
